Paper PMC9464622, “The collectin SP-A and its trimeric recombinant fragment protect alveolar epithelial cells from the cytotoxic and proinflammatory effects of human cathelicidin in vitro” (Frontiers in Immunology, 2022)

What was measured:
[1] = target: Recombinant trimeric fragment of human SP-A1 (rfhSP-A) (human); experiment: other fluorescence titration; intrinsic tryptophan fluorescence of SP-A (75 nM) or rfhSP-A (52 nM) titrated with LL-37; 25°C, 5 mM Tris-HCl pH 7.4, without NaCl; excitation 295 nm; fit to the Hill equation; apparent KD
[2] = target: Human surfactant protein A (native SP-A) (human) (UniProt Q8IWL2); experiment: other fluorescence titration; intrinsic tryptophan fluorescence of SP-A (75 nM) or rfhSP-A (52 nM) titrated with LL-37; 25°C, 5 mM Tris-HCl pH 7.4, with 150 mM NaCl; excitation 295 nm; fit to the Hill equation; apparent KD
[3] = target: Recombinant trimeric fragment of human SP-A1 (rfhSP-A) (human); experiment: as above
[4] = target: Human surfactant protein A (native SP-A) (human) (UniProt Q8IWL2); experiment: native gel or EMSA + AUC + other: electron microscopy; degree of oligomerization of isolated SP-A: electrophoresis under nondenaturing conditions, electron microscopy and analytical ultracentrifugation, as reported elsewhere (refs 28, 29)

Kd [1] [nM]	Kd [2] [nM]	Kd [3] [nM]	stoichiometry N [4] [subunits]	Substance
0.0735	0.45	1.2		Human cathelicidin LL-37 (peptide)
			> 18	Human surfactant protein A (native SP-A) (from UniProt Q8IWL2 21-248) (natural protein)
